Source: doi:10.1101/093054 (bioRxiv, 2016)

Columns and labels:
SPD-5::TagRFP = molecular target: T1, SPD-5::TagRFP (C. elegans, UniProt P91349 1-1198); test: partitioning into droplets by fluorescence microscopy
T1 sequence (looked up): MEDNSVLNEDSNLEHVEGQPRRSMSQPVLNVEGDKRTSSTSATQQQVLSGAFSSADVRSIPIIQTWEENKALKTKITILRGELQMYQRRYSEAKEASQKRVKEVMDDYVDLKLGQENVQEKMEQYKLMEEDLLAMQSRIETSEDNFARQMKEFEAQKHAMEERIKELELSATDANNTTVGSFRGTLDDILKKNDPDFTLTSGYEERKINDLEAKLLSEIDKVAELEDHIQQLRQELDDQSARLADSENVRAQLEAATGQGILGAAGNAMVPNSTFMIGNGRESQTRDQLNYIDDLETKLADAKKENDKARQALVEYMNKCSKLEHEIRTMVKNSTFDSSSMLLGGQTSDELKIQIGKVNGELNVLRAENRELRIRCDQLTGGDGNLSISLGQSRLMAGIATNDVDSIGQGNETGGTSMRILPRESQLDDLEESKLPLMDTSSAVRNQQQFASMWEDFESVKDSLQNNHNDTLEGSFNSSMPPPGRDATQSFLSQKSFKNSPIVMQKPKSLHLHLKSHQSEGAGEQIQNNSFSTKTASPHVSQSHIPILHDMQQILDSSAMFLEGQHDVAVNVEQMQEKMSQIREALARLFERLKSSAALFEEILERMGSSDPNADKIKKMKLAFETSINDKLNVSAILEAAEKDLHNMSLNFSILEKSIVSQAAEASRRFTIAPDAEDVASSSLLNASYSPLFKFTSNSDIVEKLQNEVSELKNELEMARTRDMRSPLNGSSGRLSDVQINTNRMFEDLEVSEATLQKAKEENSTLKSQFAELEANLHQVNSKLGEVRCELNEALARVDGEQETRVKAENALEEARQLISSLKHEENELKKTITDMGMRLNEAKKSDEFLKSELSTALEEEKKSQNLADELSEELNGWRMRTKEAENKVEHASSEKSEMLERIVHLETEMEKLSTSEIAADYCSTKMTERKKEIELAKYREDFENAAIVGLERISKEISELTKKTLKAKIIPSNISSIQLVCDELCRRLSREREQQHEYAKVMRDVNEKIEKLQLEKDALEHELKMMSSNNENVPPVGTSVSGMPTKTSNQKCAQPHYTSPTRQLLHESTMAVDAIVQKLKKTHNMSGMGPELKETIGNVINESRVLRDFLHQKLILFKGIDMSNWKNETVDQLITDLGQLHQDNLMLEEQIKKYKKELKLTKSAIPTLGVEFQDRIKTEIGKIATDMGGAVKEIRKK

[1] = molecular target: T2, SPD-5::TagRFP (C. elegans), P91349; test: as above; conditions: remark: other sources report otherwise
T2 chain: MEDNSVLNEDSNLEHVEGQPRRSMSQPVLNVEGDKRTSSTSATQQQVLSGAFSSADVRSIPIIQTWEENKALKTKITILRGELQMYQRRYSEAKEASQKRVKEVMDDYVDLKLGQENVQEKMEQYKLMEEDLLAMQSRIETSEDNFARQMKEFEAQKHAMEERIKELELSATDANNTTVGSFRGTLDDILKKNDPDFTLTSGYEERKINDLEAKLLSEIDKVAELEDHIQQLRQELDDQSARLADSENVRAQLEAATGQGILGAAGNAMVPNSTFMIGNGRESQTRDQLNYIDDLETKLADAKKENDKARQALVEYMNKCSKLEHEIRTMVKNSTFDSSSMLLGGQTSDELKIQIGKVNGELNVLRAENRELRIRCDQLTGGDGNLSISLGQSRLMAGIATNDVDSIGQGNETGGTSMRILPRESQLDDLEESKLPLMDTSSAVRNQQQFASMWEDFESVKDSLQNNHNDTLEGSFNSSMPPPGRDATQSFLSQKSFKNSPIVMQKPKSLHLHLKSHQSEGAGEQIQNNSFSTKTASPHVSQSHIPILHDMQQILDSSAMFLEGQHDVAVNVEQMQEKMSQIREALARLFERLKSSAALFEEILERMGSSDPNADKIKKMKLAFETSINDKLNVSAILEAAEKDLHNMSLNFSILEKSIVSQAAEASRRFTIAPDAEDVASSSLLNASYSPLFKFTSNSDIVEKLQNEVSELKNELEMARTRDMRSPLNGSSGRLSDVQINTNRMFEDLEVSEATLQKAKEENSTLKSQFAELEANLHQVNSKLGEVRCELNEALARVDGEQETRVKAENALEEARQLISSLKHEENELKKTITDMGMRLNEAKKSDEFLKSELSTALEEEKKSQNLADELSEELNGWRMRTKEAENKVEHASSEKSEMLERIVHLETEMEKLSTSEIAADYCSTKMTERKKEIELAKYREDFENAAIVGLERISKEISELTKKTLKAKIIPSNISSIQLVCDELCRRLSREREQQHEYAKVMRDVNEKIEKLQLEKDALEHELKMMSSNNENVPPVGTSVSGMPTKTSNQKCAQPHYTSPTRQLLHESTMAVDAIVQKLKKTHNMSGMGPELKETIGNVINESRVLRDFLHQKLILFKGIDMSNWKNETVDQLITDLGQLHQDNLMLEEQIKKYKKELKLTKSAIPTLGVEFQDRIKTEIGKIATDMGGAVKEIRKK

Row | Molecule | partition coefficient (droplet vs. bulk) (SPD-5::TagRFP) | partition coefficient (droplet vs. bulk) [1]
1 | TPXL-1::GFP (natural protein) | 59 | 
2 | GFP::SPD-2 (natural protein, C. elegans, UniProt P91870 1-824, looked up) MEDDAPMNLCNEQFEEIEDSPIDDNDNESFYNADGDVELEEEEVHETPKNFKNGGRFKTNMTNPKVNDLTTIEEKNEDLRSAASSRSASRPASVMSDKSFSSQFEFQSGGENAIEEYTNQVFADENKADLLFPETSKFMNGASPPKDKHHSWEPSIHHYDKQPPPDIQTNSPVFGNLNHRKNKLIPQARAKPGANDNEIVERDNDENVPTTSDKSAFITSPMNSTNHDEKTSTPKRPTNRKIGQYQGPNFDLSSIYVGSPQHQNTSISTGQQMPTSSYSHAHSETMMTNQTINESMVRRVLNGNNKNQDLFAALEEARKRRAAQPSKPDFRINTTRTRVPIKPTSARHSGNVVSSTSNDNTTAASSKDLTTSRKAMETFRQNASMADATNSNTASMTSILSTISTARTDISRSSRNHGGGFSNTSVSTVIPANNGNVSLSHGRDGRDSVSSVRTMSRASSTSTVYAGSTFSGVSKPLRIHAKRVAFGCVAVGETLRVEVEVENISDRQCLVRASTDSTTPVYQILDNKLTMVDPKKSIKFQVSFSPSSVGRYQVIMSIEVPAQNFIHKIPMWGNGGIAKFVPTSPDLQQTINQSEYAMCTSCAKRISFKISNSAGTRDGFAMIKVFDSAMRQLPDGCVAFFPAPGFIVKKKSDKRVDIRIDSSYIDLHDENNFRTSSSLSTASTTSSFQRRILPGAKFFVHVVWGEETMRTRLRLLEVRTGQHQLIDGHDFTSFQFSDEEVLRAVPVGFPAIKPEDRDLFAASYRSFFINFFTSTTEFRAATSRKKKEICSNDDSTLLETTAFRNQTFVNDVTIVPNTRFSNRK | 67 | 
3 | EB1-GFP (natural protein, UniProt Q15691 1-268, looked up) MAVNVYSTSVTSDNLSRHDMLAWINESLQLNLTKIEQLCSGAAYCQFMDMLFPGSIALKKVKFQAKLEHEYIQNFKILQAGFKRMGVDKIIPVDKLVKGKFQDNFEFVQWFKKFFDANYDGKDYDPVAARQGQETAVAPSLVAPALNKPKKPLTSSSAAPQRPISTQRTAAAPKAGPGVVRKNPGVGNGDDEAAELMQQVNVLKLTVEDLEKERDFYFGKLRNIELICQENEGENDPVLQRIVDILYATDEGFVIPDEGGPQEEQEEY | 3.2 | 
4 | ZYG-9::GFP (natural protein, C. elegans, UniProt G5EEM5 1-1415, looked up) MSNWDYLDEVDILPKLPPNFDELRESKKWQERKEALEALLKVLTDNERLSTKASYAELIGHLQMVLAKDANINCQALAAKCIGKFATGLRAKFSSFAGPLLPVIFEKMKEKKPMLREPLVDCSNEVGRTMQSLETGQEDILAALAKPNPQIKQQTALFVARQLDLVVPAKQPKGFIKAVVPVFGKLTGDADQDVREASLQGLGAVQRIIGDKNVKNLLGDASSDEGKMKKIGEYAEKSTASFAEEQAKNAPPVAPTSSTPSASAASGDPSGGTATAVVSSGAPVAEADPWDFLDAFDVLSKMPDGFDTNIESKKWQERKEALEGLLQLITANPKLDPKANYGALVERLQKVLEKDANINVAALAANCITGIANGLRTKFQPFAVSVTPIIFEKFKEKKPTLRDPLVACIDAVVATTNLEAVGEIVLAALGKPNPSIKTQTDLFLQRCFMKLNSQTMPKKTLKTLIPSLIKHSGDSDSEVREASYAAMGAMMRAIGEKPSLQLLADIASDNLKMSKIKEFHQKALDEAGPAEIAEMVKSIHKADAPPAAAPPKKTAPPKKQPEDEEVVEEEDEPLKPPPGDKKKKVPVKENEENEPPVVAPKAELLLSDNEDKKQRIKEEKQLKLVKWNFQAPTDEHISQLQTLLGNQAKVSLMSQLFHKDFKQHLAALDSLVRLADTSPRSLLSNSDLLLKWCTLRFFETNPAALIKVLELCKVIVELIRDTETPMSQEEVSAFVPYLLLKTGEAKDNMRTSVRDIVNVLSDVVGPLKMTPMLLDALKSKNARQRSECLLVIEYYITNAGISPLKSLSVEKTVAPFVGDKDVNVRNAAINVLVACFKFEGDQMWKAAGRMADKDKSLVEERIKRTGVKPGSGVVTSPPTGGPKILVPQQQGSVVRRPASRSRTREPEPEEVQSDTFTIRQDTMPPKTSSRYALRDDVFSSAMGRLDGTQVITPPQPVNGWSNNTFQMKRTNSSSSISSIDTSDQIQRSINNISSSLADVAQDAMFQVTYVLNQPEQRHLVDRRADLVFRASAAQLDLVIEEFNAGRDVSGTMDACTQMLFILMGGVETEHGLEPLNASPDTVKAIISSVLRCIIQIGNTESGYGMARSLNRLAMRLIYRVELSNLLCGLILAMTESLQMNTGITELVSKLSSKWCDELEKRRAQLRASDIVDSFNAFYVCALTELKMDISDSHILIVDNYLERVILQQGDVVLDAARRLSRPHMHLTSMINKILQMMRERKIDPIMPGTLEARMPQEDEAVVVRSGVQVSIDNILRDTSMAVKHIEQLNILIASSDRSWNEYMEYLKNNPMGELIKELVGECSRKKRIDFNLSHVVKSSMAVFKAMAATGPVQEEGRITPTDINRMDTMIVGTPLSRGDATITRARGNMIRPKRTTLSRDQMANIRHTLDRVKNH | 101 | 
5 | PLK-1::GFP, P34331 1-648 (enzyme) MNRLPNIAKPPQKSNQRKEKAPPEVPALIADKDRGTYYEKGRFLGKGGFAHCYELTNRATREVVAGKVVPKSMLVKQYQRDKMTQEVQIHRELGHINIVKLFNFFEDNLNVYITLELCARRSLMELHKRRKAVTEPEARYFTHQIVDGVLYLHDLNIIHRDMKLGNLFLNDDLVVKIGDFGLATTVNGDERKKTLCGTPNYIAPEVLNKAGHSFEVDIWAVGCILYILLFGQPPFESKSLEETYSRIRHNNYTIPSIATQPAASLIRKMLDPEPTRRPTAKQVQRDGFFKSGFMPTRLPVSCLTMVPKFGGHETSMMEENVAPRGVDARSQRPLNGRAGLSALPQHIVSNNADRERAQQQAAEATFREPEDAYLSQLFHQVAVLLEQRIPGLEEEEAALDGYQSPECLPVFWISKWVDYSDKYGIGYQLCDNSVGVLFNDNSRIMLDQAGNELTYIEKSNKEHYFSMHSGEMPGLLNKKVTLLKYFRSYMNDHLVKAGEGSEQRAGDDLARLPTLRVWFRTKSAIVLHLSNGTVQINFFNDHVKMMMCPLMQAVTFIDQNKRMLTYKLNNLQRNGCPEKFLHRLKYAKTMIERLMSDANVVSQNPARQPDMPRSMAAARSASAGSRGPNQAASHLPQSASGSNIHPRR |  | 19.8
